Biological target: His-tagged mouse Wnt3a (mouse) (UniProt P27467)
Assay: cell-based or functional assay

Chain of UniProt P27467 (P27467 19-352): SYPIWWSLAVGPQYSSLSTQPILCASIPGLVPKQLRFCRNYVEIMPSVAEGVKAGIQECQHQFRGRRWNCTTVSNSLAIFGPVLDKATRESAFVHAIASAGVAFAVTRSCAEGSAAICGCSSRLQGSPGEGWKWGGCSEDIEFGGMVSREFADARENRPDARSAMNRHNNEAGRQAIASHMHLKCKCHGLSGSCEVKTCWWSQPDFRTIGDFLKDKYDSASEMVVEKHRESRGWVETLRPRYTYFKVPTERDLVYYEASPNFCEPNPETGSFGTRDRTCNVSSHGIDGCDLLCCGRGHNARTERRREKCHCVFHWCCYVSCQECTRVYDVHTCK

decrease in Wnt3a-induced CRT (beta-catenin-TCF-regulated transcription), TCF-responsive reporter in HEK293T and Huh-7 cells | Substance
> 80% | human FZC18 (from UniProt P39060 216-450)
> 80% | human V3Nter (from UniProt P39060 24-497)
